Laboratory results as given in US11142588B2, “Polypeptides which bind C-X-C chemokine receptor type 4 (CXCR4) and methods of treating or reducing the risk of fibrosis and cancer” (AdAlta Limited, priority 2015, dated 2021).
Where two headings read alike, the source gives them in different places. Each block holds one molecule with its values, some of them ahead of it.

How the values were obtained:
Ramos tumor cells [1] = details: previous report, Kuhne et al 2013; cited from earlier work
[2] = Laser induced choroidal neovascularisation model; assay type: in vivo, mouse; details: intravitreal, 1 μl up to 20 mg/ml
Method: The laser induced choroidal neovascularisation (CNV) is a well characterised and accepted model of choroidal neovascularisation (Fletcher E L et al. (2011) Prog Mol Biol Transl Sci 100:211-286). It is also a rapid method for determining the efficacy of potential treatments that target angiogenesis and fibrosis. Briefly, up to four laser spots are applied to the posterior eye using a continuous wave photocoagulation laser ([…] diode). The laser energy is high enough to create a break in Bruch's membrane. During the following 7-14 days, growth of blood vessels from the choroid into the retina occurs, and is quantified either immuocytochemically, or using fluorescein angiography.
Mice were treated as below: • Group 1 (n=10): laser both eyes-vehicle in one eye; i-body in the other • Group 2 (n=10): Laser one eye (no i-body); other eye unlasered. • The i-body drug was injected intravitreally in 1 μl volume at a concentration up to 20 mg/ml.
The expression of genes associated with angiogenesis and fibrosis was examined. Total RNA was isolated from the retina and RPE/choroidal samples using commercial spin columns (RNeasy, Qiagen, Valencia Calif.). A PCR gene array was used to assess the expression of 84 genes involved angiogenesis or fibrosis (Qiagen). Briefly, total RNA samples from untreated, laser treated eyes and untreated fellow eyes (n=9 each group, each 25 ng) were pooled within their respective treatment groups (3 independent experiments containing 3 pooled samples), reversed transcribed (RT2 first strand, Qiagen) and then underwent pre-amplification of the cDNA target templates (RT2 pre-AMP, Qiagen). Samples were added to a commercial mastermix (RT2 SYBR green mastermix, Qiagen) and amplified for 40 cycles (ABI 7900HT, Life Technologies, Grand Island N.Y.). Three independent arrays were performed for each treatment group. The data were analysed using delata delta Ct (ΔΔCt), expressed as fold change and regulation assessed using an unpaired t-test.

[3] = tested on: normal and IPF lung fibroblasts; assay: Wound healing invasion assay of lung fibroblasts; assay type: cell-based, human; details: 130 μg/ml
Method: To determine the role of CXCR4 and CXCL12 in fibroblast invasion, normal and IPF lung fibroblasts were utilized in a wound healing invasion assay. ImageLock 96 well plates (Essen Bioscience) were coated with 50 μg/ml of Basement membrane extract (BME; Trevigen) for one hour at room temperature. Normal, and fibroblasts generated from lung biopsies of idiopathic pulmonary fibrosis (IPF) patients showing slow progression or rapid progression of the disease were plated (36,000 cells per well) on the BME-coated plates and incubated overnight. […] The BME was allowed to polymerize by incubating the plate at 37° C. for 15 minutes. The plates were then inserted into an IncuCyte Zoom imaging system and images were acquired every 2 hours for approximately 50 hours. Invasion was quantified using IncuCyte software (Essen Bioscience).

CCRF-CEM cells = assay: Immunohistochemistry staining of tumours in spleen and liver of SCID/bg mice; details: 130 μg/ml
Method: Tissues were fixed in 10% neutral buffered formalin overnight and subsequently transferred into tissue cassettes and placed in 70% ethanol. The tissues were then paraffin embedded. Slides containing 4 μm sections were deparaffinized and hydrated by incubating them in two changes of xylene for five min each, followed by two changes of 100% ethanol for 3 min each, 70% ethanol for 2 min, 50% ethanol for 2 min, and distilled water for 5 min. Antigen retrieval was performed by incubating the slides in 10 mM Citric acid solution (pH 6.0) in an 80° C. oven overnight. The slides were subsequently washed in PBS and permeabilized in 10% methanol containing 0.4% H2O2 for 30 min. […] All slides were subsequently stained with biotinylated anti-His tag antibodies (Miltenyi Biotech) and developed using an HRP-DAB cell and tissue staining kit according to the manufacturer's instructions (R&D systems).

Ramos tumor cells [4] = assay: Apoptosis assay (annexin V / propidium iodide flow cytometry); assay type: cell-based, human; details: annexin V and propidium iodide double positive, 24 or 72 hours
Method: The ability of an i-body of the invention to induce apoptosis in Ramos tumor cells (a human Burkitt's lymphoma cell line) was examined in an apoptosis assay according to the methods as described in Mishra M et al (2011) J Cell Mol Med 15(11):2462-77. I-bodies were incubated with Ramos cells and examined by flow cytometry after 24 or 72 hours. The cells were stained for annexin V and propidium iodide which are classic markers for apoptosis. Cells which were double positive were assessed to have become apoptotic.

CCL2 and CCL5 protein = assay: CCL2, CCL5, CXCL12 ELISA of fibroblast conditioned supernatants; assay type: cell-based, human; details: 48 hours
Text: Various reports indicate that CXCR4 signals in conjunction with other chemokine receptors, including CCR2.

[5] = tested on: ACTA2, COL1A1, COL3A1 and FN1 transcripts; assay: qPCR of pro-fibrotic transcripts in lung fibroblasts; assay type: cell-based, human; details: 130 μg/ml, 48 hours
Method: After 48 hours, RNA was extracted using Trizol reagent and reverse transcribed into cDNA using superscript II reverse transcriptase (Life technology) as previously described (Trujillo et al Sci Transl Med 2010 2; 57ra82). Complementary DNA (cDNA) was subsequently loaded into a Taqman plate and gene expression analysis were performed using predesigned primers for COL1A1, COL3A1, FN1, and aSMA. All Taqman analysis was performed using an Applied Bio system's Viia 7 instrument (Life technology). The results were then exported, normalized to 18s RNA expression and fold change analysis were calculated using Data Assist software (Life technologies).

[6] = Binding to null lipoparticles (off-target control)
Method: (FIGS. 2A-2C, 5A-5C, 11A-11D, 17A-17B) Kinetic binding analysis of selected i-bodies with immobilized CXCR4 lipoparticles were performed at 25° C. using Biacore T200 instrument (GE Healthcare, Uppsala, Sweden). Streptavidin immobilization was performed in 1×HBS-P+ running buffer (10 mM HEPES, 150 mM NaCl, 0.05% [v/v] Tween-20). Amine coupling kit (GE Healthcare) and the instructions therein were utilized for the attachment of Streptavidin (Sigma; diluted to 100 μg/mL in 10 mM sodium acetate buffer pH 4.5) in all four channels on the sensor chip surface simultaneously, resulting in >6,000 RU of Streptavidin being coupled (1 RU=1 pg protein/mm^2). All binding experiments involving lipoparticles were performed with 1×HBS/BSA (10 mM HEPES, 150 mM NaCl, 1 mg/mL BSA) as instrument running buffer. Biotinylated CXCR4 lipoparticles (Integral Molecular, Cat #LEV-101B; 3.6 U/mL as described in WO 2005/042695) were typically diluted 1 in 20 in the running buffer and immobilized onto a Streptavidin containing channel by injecting at […] for 1,800 sec resulting in captured response levels of greater than 2,500 RU. […] In order to determine binding kinetics, serial dilutions (three-fold) of i-bodies diluted in 1×HBS/BSA were injected over immobilized lipoparticles with the association and dissociation phases monitored for 60 sec and 600 sec, respectively. […]

CXCR4 = CXCR4 (Homo sapiens, UniProt P61073); assay: β-arrestin BRET assay, antagonist mode with 100 nM SDF-1; assay type: cell-based; set-up: expressed in transfected cells; host or cells: HEK293FT; details: various concentrations
In short: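 HEK293FT cells transiently co-expressed CXCR4/Rluc8 and β-arrestin2/Venus and were read at 37 °C with coelenterazine h or EnduRen substrate. i-Bodies were tested at ten concentrations with 100 nM SDF-1. BRET signal is the 520-540/400-475 nm emission ratio minus the vehicle ratio; mean±S.E.M. of four experiments in duplicate.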

[7] = molecular target: CCR5 positive lipoparticles (Homo sapiens, UniProt P51681); assay: ELISA binding to CCR5 positive lipoparticles
Text: The mutant i-body clones were also examined for binding to CCR5 positive lipoparticles (FIG. 7B).

Sequence of CXCR4 (P61073 whole entry): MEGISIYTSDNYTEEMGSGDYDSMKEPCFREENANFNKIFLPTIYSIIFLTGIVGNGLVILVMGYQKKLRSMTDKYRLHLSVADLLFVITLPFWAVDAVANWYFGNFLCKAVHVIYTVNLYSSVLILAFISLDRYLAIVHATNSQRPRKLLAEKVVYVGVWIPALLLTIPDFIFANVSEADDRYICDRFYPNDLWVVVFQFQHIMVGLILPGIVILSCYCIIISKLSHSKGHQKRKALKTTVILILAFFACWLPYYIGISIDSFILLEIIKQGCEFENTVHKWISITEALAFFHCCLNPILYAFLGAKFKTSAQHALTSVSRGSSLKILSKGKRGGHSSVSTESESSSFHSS
Sequence of CCR5 positive lipoparticles (P51681 whole entry): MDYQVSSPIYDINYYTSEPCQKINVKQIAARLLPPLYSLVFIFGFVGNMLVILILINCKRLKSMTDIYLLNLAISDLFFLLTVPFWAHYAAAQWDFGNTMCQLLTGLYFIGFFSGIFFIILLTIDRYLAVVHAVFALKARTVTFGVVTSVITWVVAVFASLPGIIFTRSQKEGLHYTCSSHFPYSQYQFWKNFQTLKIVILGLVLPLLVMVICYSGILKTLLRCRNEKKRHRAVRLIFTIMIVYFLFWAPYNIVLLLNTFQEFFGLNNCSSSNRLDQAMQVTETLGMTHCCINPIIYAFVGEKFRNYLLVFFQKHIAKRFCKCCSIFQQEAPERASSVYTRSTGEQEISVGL

Molecule: MDX-1338: human anti-CXCR4 mAb
induction of apoptosis in Ramos cells (Ramos tumor cells [1]): able to induce apoptosis

B1: AM3-114-6H: AM3-114 with 6 His tag, containing the N-terminal sequence EAEA (protein)
chain: EAEALQVDIVPYQGEISVGESKFFLCQVAGSLSGIRISWFSPNGEKLTPNQQRISVVWNDDSSSTLTIYNANIDDAGIYKCVVWRTGGYRHRYLVLGEATVNVKIFQ
modifications: left off: small tags and cut ends
pathological angiogenesis / lesion size [2]: reduces pathological angiogenesis or lesion characteristics | invasion of rapid-IPF (fast progressor) lung fibroblasts [3]: two out three | invasion of slow-IPF lung fibroblasts [3]: inhibited invasion | staining of CCRF-CEM cells in spleen and liver (CCRF-CEM cells): stained CCRF-CEM cells | induction of apoptosis in Ramos cells (Ramos tumor cells [4]): strongly induce apoptosis | CCL2 protein in IPF fibroblast conditioned supernatants (CCL2 and CCL5 protein): markedly increased | ACTA2, COL1A1, COL3A1 and FN1 transcript expression in slow-IPF lung fibroblasts [5]: markedly reduced

binding to null lipoparticles [6]: very little binding | β-arrestin activity (CXCR4): some degree of inhibition | binding to CCR5 positive lipoparticles [7]: very little binding
B2: ADCX-272: CXCR4 binding i-body, SEQ ID NO: 14 (protein)
chain: LQVDIVPSQGEISVGESKFFLCQVAGHLEVRSISWFSPNGEKLTPNQQRISVVWNDDSSSTLTIYNANIDDAGIYKCVVEQRGRSQSYFSEATVNVKIFQ
